# Reference: patent publication US10239925B2, “Peptides and combination of peptides for use in immunotherapy against ovarian cancer and other cancers” (IMMATICS BIOTECHNOLOGIES GMBH, priority 2015, dated 2019)
# Target: HLA-A*02:01 (Homo sapiens, UniProt P04439, D140Y/D185E/D98H/E176V/E277Q/G131W/G231S/I119V/I121R/I166T/I218V/L300P/L318F/N151K/N90K/P208A/P217A/Q86G/Q94H/R138H/R169H/T345S)
# Assay: MHC binding assay (UV-ligand exchange, anti-β2m ELISA, peptide exchange yield)
# Details: binding to HLA-A*02:01
# Method in brief: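 Peptide-MHC complexes formed by UV-ligand exchange, cleaving a UV-sensitive placeholder peptide in favour of the test peptide. Exchange yield measured by ELISA: monomers diluted 100-fold onto streptavidin-coated plates, 1 h 37 °C, detected with 2 ug/ml HRP anti-β2m and TMB, absorbance at 450 nm.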
substance,measurement,value
530 (VMYADIGGMDI; listed as Homo sapiens) [compound 530],"Peptide exchange (MHC class I binding score, peptide exchange yield)",“+++” (>50 = +++)
528 (SVAEGRALMSV; listed as Homo sapiens) [compound 528],"Peptide exchange (MHC class I binding score, peptide exchange yield)",“+++” (>50 = +++)
542 (RVWDISTVSSV; listed as Homo sapiens) [compound 542],"Peptide exchange (MHC class I binding score, peptide exchange yield)",“+++” (>50 = +++)
448 (NLLETKLQL; listed as Homo sapiens) [compound 448],"Peptide exchange (MHC class I binding score, peptide exchange yield)",“+++” (>50 = +++)
545 (LLADLLHNV; listed as Homo sapiens) [compound 545],"Peptide exchange (MHC class I binding score, peptide exchange yield)",“+++” (>50 = +++)
101 (ILVGGGALATV; listed as Homo sapiens) [compound 101],"Peptide exchange (MHC class I binding score, peptide exchange yield)",“+++” (>50 = +++)
378 (ALGYFVPYV; listed as Homo sapiens) [compound 378],"Peptide exchange (MHC class I binding score, peptide exchange yield)",“+++” (>50 = +++)
345 (VIWKALIHL; listed as Homo sapiens) [compound 345],"Peptide exchange (MHC class I binding score, peptide exchange yield)",“+++” (>50 = +++)
14 (AAYGGLNEKSFV; listed as Homo sapiens) [compound 14],"Peptide exchange (MHC class I binding score, peptide exchange yield)",“+++” (>50 = +++)
223 (ALLENIALYL; listed as Homo sapiens) [compound 223],"Peptide exchange (MHC class I binding score, peptide exchange yield)",“+++” (>50 = +++)
275 (YLVYILNEL; listed as Homo sapiens) [compound 275],"Peptide exchange (MHC class I binding score, peptide exchange yield)",“++” (>20% = ++)
84 (VTFGEKLLGV; listed as Homo sapiens) [compound 84],"Peptide exchange (MHC class I binding score, peptide exchange yield)",“++” (>20% = ++)
519 (GLLHLTLLL; listed as Homo sapiens) [compound 519],"Peptide exchange (MHC class I binding score, peptide exchange yield)",“+++” (>50 = +++)
313 (VLFDDELLMV; listed as Homo sapiens) [compound 313],"Peptide exchange (MHC class I binding score, peptide exchange yield)",“+++” (>50 = +++)
134 (YLQELIFSV; listed as Homo sapiens) [compound 134],"Peptide exchange (MHC class I binding score, peptide exchange yield)",“+++” (>50 = +++)
598 (FLFPHSVLV; listed as Homo sapiens) [compound 598],"Peptide exchange (MHC class I binding score, peptide exchange yield)",“+++” (>50 = +++)
476 (ALMERTGYSMV; listed as Homo sapiens) [compound 476],"Peptide exchange (MHC class I binding score, peptide exchange yield)",“+++” (>50 = +++)
608 (SLLSVSHAL; listed as Homo sapiens) [compound 608],"Peptide exchange (MHC class I binding score, peptide exchange yield)",“+++” (>50 = +++)
316 (ILLERLWYV; listed as Homo sapiens) [compound 316],"Peptide exchange (MHC class I binding score, peptide exchange yield)",“+++” (>50 = +++)
481 (GLIEDYEALL; listed as Homo sapiens) [compound 481],"Peptide exchange (MHC class I binding score, peptide exchange yield)",“+++” (>50 = +++)
471 (YLYNNMIAKI; listed as Homo sapiens) [compound 471],"Peptide exchange (MHC class I binding score, peptide exchange yield)",“+++” (>50 = +++)
341 (SQIALNEKLVNL; listed as Homo sapiens) [compound 341],"Peptide exchange (MHC class I binding score, peptide exchange yield)",“+++” (>50 = +++)
605 (KLYEAVPQL; listed as Homo sapiens) [compound 605],"Peptide exchange (MHC class I binding score, peptide exchange yield)",“+++” (>50 = +++)
186 (TLFFQQNAL; listed as Homo sapiens) [compound 186],"Peptide exchange (MHC class I binding score, peptide exchange yield)",“++” (>20% = ++)
217 (ALIHPVSTV; listed as Homo sapiens) [compound 217],"Peptide exchange (MHC class I binding score, peptide exchange yield)",“++” (>20% = ++)
192 (KMLDGASFTL; listed as Homo sapiens) [compound 192],"Peptide exchange (MHC class I binding score, peptide exchange yield)",“+++” (>50 = +++)
18 (YLVAKLVEV; listed as Homo sapiens) [compound 18],"Peptide exchange (MHC class I binding score, peptide exchange yield)",“++” (>20% = ++)
32 (KLDDLTQDLTV; listed as Homo sapiens) [compound 32],"Peptide exchange (MHC class I binding score, peptide exchange yield)",“++” (>20% = ++)
76 (ILIDSIYKV; listed as Homo sapiens) [compound 76],"Peptide exchange (MHC class I binding score, peptide exchange yield)",“+++” (>50 = +++)
361 (ALYELEGTTV; listed as Homo sapiens) [compound 361],"Peptide exchange (MHC class I binding score, peptide exchange yield)",“+++” (>50 = +++)
356 (KLLGKLPEL; listed as Homo sapiens) [compound 356],"Peptide exchange (MHC class I binding score, peptide exchange yield)",“+++” (>50 = +++)
178 (ALTEIAFVV; listed as Homo sapiens) [compound 178],"Peptide exchange (MHC class I binding score, peptide exchange yield)",“++++” (>75% = ++++)
334 (TLTKVLVAL; listed as Homo sapiens) [compound 334],"Peptide exchange (MHC class I binding score, peptide exchange yield)",“+++” (>50 = +++)
557 (KLYDDMIRL; listed as Homo sapiens) [compound 557],"Peptide exchange (MHC class I binding score, peptide exchange yield)",“+++” (>50 = +++)
311 (RLYTGMHTV; listed as Homo sapiens) [compound 311],"Peptide exchange (MHC class I binding score, peptide exchange yield)",“+++” (>50 = +++)
50 (SLSELEALM; listed as Homo sapiens) [compound 50],"Peptide exchange (MHC class I binding score, peptide exchange yield)",“+++” (>50 = +++)
225 (SLLKVLPAL; listed as Homo sapiens) [compound 225],"Peptide exchange (MHC class I binding score, peptide exchange yield)",“+++” (>50 = +++)
161 (ALLEGVNTV; listed as Homo sapiens) [compound 161],"Peptide exchange (MHC class I binding score, peptide exchange yield)",“+++” (>50 = +++)
262 (LLWGDLIWL; listed as Homo sapiens) [compound 262],"Peptide exchange (MHC class I binding score, peptide exchange yield)",“+++” (>50 = +++)
71 (GILARIASV; listed as Homo sapiens) [compound 71],"Peptide exchange (MHC class I binding score, peptide exchange yield)",“+++” (>50 = +++)
497 (GLLEKLTAI; listed as Homo sapiens) [compound 497],"Peptide exchange (MHC class I binding score, peptide exchange yield)",“+++” (>50 = +++)
96 (YIFTDNPAAV; listed as Homo sapiens) [compound 96],"Peptide exchange (MHC class I binding score, peptide exchange yield)",“+++” (>50 = +++)
370 (SLLQDLVSV; listed as Homo sapiens) [compound 370],"Peptide exchange (MHC class I binding score, peptide exchange yield)",“+++” (>50 = +++)
480 (ALLEDSCHYL; listed as Homo sapiens) [compound 480],"Peptide exchange (MHC class I binding score, peptide exchange yield)",“+++” (>50 = +++)
183 (FGLDLVTEL; listed as Homo sapiens) [compound 183],"Peptide exchange (MHC class I binding score, peptide exchange yield)",“+++” (>50 = +++)
137 (TLVLTLPTV; listed as Homo sapiens) [compound 137],"Peptide exchange (MHC class I binding score, peptide exchange yield)",“++++” (>75% = ++++)
523 (YQIPRTFTL; listed as Homo sapiens) [compound 523],"Peptide exchange (MHC class I binding score, peptide exchange yield)",“++” (>20% = ++)
125 (VQIHQVAQV; listed as Homo sapiens) [compound 125],"Peptide exchange (MHC class I binding score, peptide exchange yield)",“+++” (>50 = +++)
401 (ILLDDTGLAYI; listed as Homo sapiens) [compound 401],"Peptide exchange (MHC class I binding score, peptide exchange yield)",“+++” (>50 = +++)
243 (LLLNELPSV; listed as Homo sapiens) [compound 243],"Peptide exchange (MHC class I binding score, peptide exchange yield)",“+++” (>50 = +++)
549 (AMLENASDIKL; listed as Homo sapiens) [compound 549],"Peptide exchange (MHC class I binding score, peptide exchange yield)",“+++” (>50 = +++)
357 (SMHDLVLQV; listed as Homo sapiens) [compound 357],"Peptide exchange (MHC class I binding score, peptide exchange yield)",“+++” (>50 = +++)
367 (SLQNHNHQL; listed as Homo sapiens) [compound 367],"Peptide exchange (MHC class I binding score, peptide exchange yield)",“+++” (>50 = +++)
478 (YLLHEKLNL; listed as Homo sapiens) [compound 478],"Peptide exchange (MHC class I binding score, peptide exchange yield)",“+++” (>50 = +++)
104 (STMEQNFLL; listed as Homo sapiens) [compound 104],"Peptide exchange (MHC class I binding score, peptide exchange yield)",“++++” (>75% = ++++)
44 (ILDPISSGFLL; listed as Homo sapiens) [compound 44],"Peptide exchange (MHC class I binding score, peptide exchange yield)",“++” (>20% = ++)
30 (LILDWVPYI; listed as Homo sapiens) [compound 30],"Peptide exchange (MHC class I binding score, peptide exchange yield)",“+++” (>50 = +++)
296 (FMEGAIIYV; listed as Homo sapiens) [compound 296],"Peptide exchange (MHC class I binding score, peptide exchange yield)",“+++” (>50 = +++)
310 (FLVDTPLARA; listed as Homo sapiens) [compound 310],"Peptide exchange (MHC class I binding score, peptide exchange yield)",“++++” (>75% = ++++)
461 (VMFRTPLASV; listed as Homo sapiens) [compound 461],"Peptide exchange (MHC class I binding score, peptide exchange yield)",“++” (>20% = ++)
90 (TLLQIIETV; listed as Homo sapiens) [compound 90],"Peptide exchange (MHC class I binding score, peptide exchange yield)",“+++” (>50 = +++)
620 (KLLNKIYEA; listed as Homo sapiens) [compound 620],"Peptide exchange (MHC class I binding score, peptide exchange yield)",“++++” (>75% = ++++)
317 (SLAALVVHV; listed as Homo sapiens) [compound 317],"Peptide exchange (MHC class I binding score, peptide exchange yield)",“+++” (>50 = +++)
342 (HIYDKVMTV; listed as Homo sapiens) [compound 342],"Peptide exchange (MHC class I binding score, peptide exchange yield)",“+++” (>50 = +++)
541 (SMLEPVPEL; listed as Homo sapiens) [compound 541],"Peptide exchange (MHC class I binding score, peptide exchange yield)",“+++” (>50 = +++)
129 (GLLDGGVDILL; listed as Homo sapiens) [compound 129],"Peptide exchange (MHC class I binding score, peptide exchange yield)",“+++” (>50 = +++)
302 (ALLQEGEVYSA; listed as Homo sapiens) [compound 302],"Peptide exchange (MHC class I binding score, peptide exchange yield)",“+++” (>50 = +++)
